Reference: patent US20250186623A1, “EXPRESSION SYSTEM FOR THE TREATMENT OF CANCER” (FUNDACION PARA LA INVESTIGACION MEDICA APLICADA, priority 2022, published 2025)

Columns and labels:
[1] = test system: B16 cells transduced with AAV8-ISREx4-LucmiR122T; test: Radiation and IFN signaling on activation of the ISREx4 promoter (luciferase); type: cell-based, murine
Excerpt: The ISREx4 promoter responds to interferon downstream signaling.

[2] = test system: MC38 cells stably expressing hSTINGmut; test: Luciferase activity under synthetic promoters (pGL3-basic plasmids); type: cell-based, murine; details: DMXAA 50 μg/mL, 48 h
Excerpt: (§1) As described above, the specificity of the promoters used in the previous experiments was somewhat poor. […] In order to achieve this, synthetic promoters have been generated.
(§2) Seven different promoters were generated, namely short STATx4 (4 STAT motifs separated by 6 nucleotides according to SEQ ID NO: 26), IRSF3×4 (4 IRSF3 motifs separated by 20 nucleotides according to SEQ ID NO: 27), short IRSF3×4 (4 IRSF3 motifs separated by 6 nucleotides according to SEQ ID NO: 28), ISREx4 (4 ISRE motifs separated by 20 nucleotides according to SEQ ID NO: 12), short ISREx4 (4 ISRE motifs separated by 6 nucleotides according to SEQ ID NO: 13), NFκBx4 (4 NFκB motifs separated by 20 nucleotides according to SEQ ID NO: 29) and short NFκBx4 (4 NFκB motifs separated by 6 nucleotides according to SEQ ID NO: 30). […] In addition, a plasmid containing the luciferase sequence under the control of the murine IFN-β-promoter (mIFN-β) and a plasmid containing the luciferase sequence under the control of CXCL10-promoter were used as controls. Either MC38 cells or human HEK293T cells, both which stably expressed hSTINGmut as described above (example 1), were transfected with the indicated plasmids using Lipofectamine3000 according to the manufacturers protocol, whereas a negative control was mock-transfected (Basic).

[3] = test system: MC38 cell lines stably expressing hSTINGmut; test: scIL-12 mRNA (qPCR) and secreted protein (ELISA) under STING-activity dependent promoters; type: cell-based, murine; details: for scIL-12 mRNA or protein expression upon DMXAA treatment: DMXAA 50 μg/mL
Excerpt: The CXCL9-promoter and the CXCL10-promoter from experiment 2, and a full length IFN-β-promoter (IFN-β according to SEQ ID NO: 25) were used for the following experiment. To this end, lentiviral vectors encoding murine scIL-12 under the control of these three different promoters were constructed. […] After the indicated time points, cells were harvested. The cell lysate was used to measure scIL-12 mRNA expression by qPCR as described before (example 1, experiment 1), whereas the supernatant was used to measure secreted scIL-12 protein in NUNC MaxiSorp flat-bottom 96-well plates using an ELISA assay kit (OptEIA, Mouse IL-12 (p70), BD Biosciences, San Diego, CA USA), following manufacturer's instructions.

[4] = test system: MC38 cell lines stably expressing hSTINGmut; test: Luciferase activity under modified IFN-β promoters; type: cell-based, murine
Excerpt: Therefore, the objective of this experiment was to examine the specificity of different modified IFN-β promoters in their response to DMXAA-induced STING activity.
To this end, five different modifications of the IFN-β promoter (short IFN-β A according to SEQ ID NO: 18, short IFN-β B according to SEQ ID NO: 19, short IFN-β C according to SEQ ID NO: 20, short IFN-β D according to SEQ ID NO: 21, short IFN-β E according to SEQ ID NO: 22) were designed. Lentiviral vectors encoding luciferase under the control of these five different promoters were constructed. […] After another 3 h (FIG. 3A) or 3 and 6 h (FIGS. 3B, 3C, 3D) or 6 h (FIGS. 3E, 3F, 3G and 3H), cells were homogenized in 50 μL of Passive Lysis Buffer (Promega) and frozen in dry ice. After 3 cycles of thaw-vortex-freeze to ensure lysis, cells were spun at 12000 g for 2 min at 4° C. 20 μL were added to a luminometer 96-well plate and luciferase activity was determined using the respective substrates D-Luciferin and Coelenterazine.

[5] = test system: MC38 cell lines stably expressing hSTINGmut; test: Luciferase activity under chemokine promoters; type: cell-based, murine; details: for luciferase activity upon DMXAA administration: DMXAA 50 μg/mL, 3 or 6 h; for luciferase activity in the absence of DMXAA (leaky expression): vehicle
Excerpt: Therefore, the objective of this experiment was to examine the specificity of these promoters in their response to DMXAA-induced STING activity.
The CXCL9-promoter (CXCL9 according to SEQ ID NO: 23) and the CXCL10-promoter (CXCL10 according to SEQ ID NO: 24) were used for the following experiment. To this end, lentiviral vectors encoding luciferase under the control of these two different promoters were constructed. […] In addition, the lentiviral vectors encoding the short IFN-β A promoter, the short IFN-β B promoter, the short IFN-β C promoter described in experiment 1 were used as a comparison. […] After another 3 or 6 h, cells were harvested and luciferase activity measured as described in experiment 1.

[6] = test system: human HEK293T cells stably expressing hSTINGmut; test: Luciferase activity under synthetic promoters (pGL3-basic plasmids); type: cell-based; details: for luciferase activity / inducibility upon DMXAA: DMXAA 50 μg/mL, 48 h; for leakage in the absence of DMXAA: vehicle
Excerpt: as §1, §2

[7] = 1,000 IU interferon alone (0 Gy)
[8] = 1,000 IU interferon together with radiation (8 Gy)

## IFN-α
[1]; [7]
  luciferase activity: significantly increased luciferase activity
[1]; [8]
  luciferase activity: induced luciferase activity dramatically

B1: short STAT-promoter: 4 STAT motifs separated by 6 nucleotides according to SEQ ID NO: 26 (nucleic acid)
DNA: ATCTCTGCGATGAACCTCACTTCGCTAGAAATCTCTGCGATGAACCTCACTTCGCTAGAAATATCTCTGCGATGAACCTCACTTCGCTAGAAATCTCTGCGATGAACCTCACTTCGCTAGAAGTGCCTCTTATGATCTGGATCTCGAGCCATGGTCGAGGCCTGTAGGCGTGTACGGTGGGAGGCTTATATAAGCAGAGCTC
modifications: misc_feature 1..202 STATx4
[2]
  luciferase activity / inducibility upon DMXAA: poor inducibility

B2: IFN-β-promoter: full length IFN-β-promoter according to SEQ ID NO: 25 (nucleic acid, listed as Mus musculus)
DNA: CCAGGATGTGGGGTTCTCTCCCAAAGGGAGCTATGGCCCATTGATGTGCCATTTCTCTTATAGTACACTATTGTAAGCCCCCTGGGAGCTCACAGAGACCCTCTCCCACCATCCCACTATTTCAAAGGGCAGCAGCTGTGCCATCCTTTCAGGATGAGCAGCTACTCTGCCTGGCTTTTCAGTGGACACTTTGGCTGTTTGAGAGTTCTTTTATCTTCAGGGCTGTCTCCTTTCTGTTCTTCTCTCCTGGATATTTCTCTTCCTTTGCTCCAGCAATTGGTGAAACTGTACAAGATTTTATAAATCCTTAGTTTGTATATATTTTAACCCAGTACATAGCATATAAAATAGCCAGGAGCTTGAATAAAATGAATATTAGAAGCTGTTAGAATAAGAGAAAATGACAGAGGAAAACTGAAAGGGAGAACTGAAAGTGGGAAATTCCTCTGAGGCAGAAAGGACCATCCCTTATAAATAGCACAGGCCATGAAGGAAGATCATTCTCACTGCAGCCTTTGACAGCCTTTGCCTCATCTTGCAGGTAGCAGCCGACACCAGCCTGGCTTCCATC
modifications: misc_feature 1..571 IFNb1-promoter
[3]
  scIL-12 mRNA or protein expression upon DMXAA treatment: poor

B3: IFN-γ: exogenously added interferon, 1,000 IU (protein, UniProt P01579 24-161, looked up)
Interferon gamma: QDPYVKEAENLKKYFNAGHSDVADNGTLFLGILKNWKEESDRKIMQSQIVSFYFKLFKNFKDDQSIQKSVETIKEDMNVKFFNSNKKKRDDFEKLTNYSVTDLNVQRKAIHELIQVMAELSPAAKTGKRKRSQMLFRG
[1]; [7]
  luciferase activity: significantly increased luciferase activity
[1]; [8]
  luciferase activity: induced luciferase activity dramatically

B4: short IFN-β A promoter: modification of the IFN-β promoter according to SEQ ID NO: 18 (nucleic acid)
DNA: CAGGAGCTTGAATAAAATGAATATTAGAAGCTGTTAGAATAAGAGAAAATGACAGAGGAAAACTGAAAGGGAGAACTGAAAGTGGGAAATTCCTCTGAGGCAGAAAGGACCATCCCTTATAAATAGCACAGGCCATGAAGGAAGATCATTCTCACTGCAGCCTTTGACAGCCTTTGCCTCATCTTGCAGGTAGCAGCCGACACCAGCCTGGCTTCCATC
modifications: misc_feature 1..219 short IFNb A-promoter
[4]; DMXAA 50 μg/mL, 3 h
  luciferase activity upon DMXAA treatment: highest luciferase activity
[4]; vehicle
  luciferase activity in the absence of DMXAA (leaky expression): significant luciferase activity

B5: CXCL9-promoter: CXCL9-promoter according to SEQ ID NO: 23 (nucleic acid, listed as Mus musculus)
DNA: GACACAGACATCTCGTGAAACATCTGGAAAAGGTAGCAGGGAACGGGACAGCAGTAGCTTATGCAACTAATCTAGCAATTACAATGATAGGAAACTGTAGCCACGGTGAGACGAAATGGATTTACCCTCAACAAATTAAGAAGCTTTGACTTGTGAGGAAAGGCAGTTTGAGTCGCCATATAGTGTCATGTCCCACGTGGGAAGTACATCTCCAACCTTCATTGTACAACATTAATATAGTCATTGTATAATCTATTCCACATCCAGGTAGCAACTTTGCCTGGGGGTGGTTTCACATCCCTTACTATAAACTCCCCGTTTATGTGAAATGGAAGTAGAACATGCAGAAATTCCCTGGGATCTGAGAGTAGGGTTTTCCCCAGGACGATCAATTTGTGGTTAGTTTAGTTCTTCTAGGTCAGCTGAGGAGACCAGCCAATCAGAGACGGGAAGGAAAAGGGATTTCCTAAATAAATATGATCCCCAAGAACATGCTCTCTAAAGACATTCTCGGACTTCACTCCAACACAGTGACTCAATAGAACTCAGCTCTGCC
modifications: misc_feature 1..556 CXCL9-promoter
[5]
  luciferase activity upon DMXAA administration: significantly higher luciferase activities
  luciferase activity in the absence of DMXAA (leaky expression): significant luciferase activity
[3]
  scIL-12 mRNA or protein expression upon DMXAA treatment: poor

B6: CXCL10-promoter: CXCL10-promoter according to SEQ ID NO: 24 (nucleic acid, listed as Mus musculus)
DNA: TCTAACTGTTCACTAAGTTGTATAGACTTTGGATCTGGCTAAATTTGGCGTGTGATTTTTTTTTAAAGTTTATTCCAAGTATTTTATAATAAAGCATATGAAGTAAAAAGCAAAAATAAACAGTGTAAACACAACAAATGTAAAAACCATGGTTAGAACCTGACTTAGATATCAGTTCTGTGTTTTATTTATGAGAGAAGGAAGATGAGAATTAAAGCCATTTCCAGACTTATTCTGCAAGGCACTGCATCTGATTTCTCAAACAGCTCACGCTTTGGAAAGTGAAACTTACCTCACTCGTTAAAAATTAAAAGGAGCACAAGAGGGGAGAGGGAAATTCCAAGTTCATGGGTCACAATAAACACAAGCAATGCCCTCGGTTTACAGGGGACTTCCCTCGGGTTGCGGAGCCTTGCTGAGTCATCTCCAAAGTCAGCCAATCAGGACTCAGGGAGGGAAACTCTTTGCAGATAAATACTCCTCAGCAGCCGGCACTCGAGAAGCGCTTCATCCACCGCTGAGAGACATCCCGAGCCAACCTTCCGGAAGCCTCCCCATCAGCACC
modifications: misc_feature 1..565 CXCL10-promoter
[5]
  luciferase activity upon DMXAA administration: significantly higher luciferase activities
  luciferase activity in the absence of DMXAA (leaky expression): significant luciferase activity
[3]
  scIL-12 mRNA or protein expression upon DMXAA treatment: highly upregulated
[3]; vehicle
  scIL-12 production in the absence of DMXAA (leakage): significant leakage
[6]
  luciferase activity / inducibility upon DMXAA: highest inducibility
  leakage in the absence of DMXAA: considerable leakage

B7: ISREx4-promoter: 4 ISRE motifs separated by 20 nucleotides according to SEQ ID NO: 12 (nucleic acid)
DNA: ATCTCTGCGATGAACCTCACAGTTTCGCTTTCTATCTCTGCGATGAACCTCACAGTTTCGCTTTCTATCTCTGCGATGAACCTCACAGTTTCGCTTTCTATCTCTGCGATGAACCTCACAGTTTCGCTTTCTGTGCCTCTTATGATCTGGATCTCGAGCCATGGTCGAGGCCTGTAGGCGTGTACGGTGGGAGGCTTATATAAGCAGAGCTC
modifications: misc_feature 1..212 ISREx4
[6]
  luciferase activity / inducibility upon DMXAA: highest inducibility
  leakage in the absence of DMXAA: undetectable leakage
